Laboratory results: US20100015130A1

Key:
[1] = target: GSK3β as used in the surface plasmon resonance (SPR) binding assays (Homo sapiens (Human)) (UniProt P49841); test: SPR, peptide at 25 µM on GSK3β
[2] = target: GSK3β as used in the surface plasmon resonance (SPR) binding assays (Homo sapiens (Human)) (UniProt P49841); test: SPR, stoichiometry inferred from the response

Sequence of GSK3β as used in the surface plasmon resonance (SPR) binding assays (Homo sapiens (Human)) (P49841 whole entry, form in doubt): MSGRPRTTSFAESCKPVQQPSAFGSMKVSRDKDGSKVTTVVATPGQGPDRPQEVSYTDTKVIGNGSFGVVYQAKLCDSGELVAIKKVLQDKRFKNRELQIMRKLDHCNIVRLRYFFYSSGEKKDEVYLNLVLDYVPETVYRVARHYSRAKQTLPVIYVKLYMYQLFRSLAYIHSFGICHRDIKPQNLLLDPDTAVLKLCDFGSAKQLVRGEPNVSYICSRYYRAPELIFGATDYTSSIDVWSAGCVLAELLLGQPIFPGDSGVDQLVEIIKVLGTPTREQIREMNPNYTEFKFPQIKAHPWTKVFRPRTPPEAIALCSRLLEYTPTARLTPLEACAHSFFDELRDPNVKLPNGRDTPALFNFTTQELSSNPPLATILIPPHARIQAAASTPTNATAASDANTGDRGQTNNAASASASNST

percent theoretical maximal response [1]: 259%
peptide-protein ratio (peptide:protein) [2]: 2
Substance: L803-MTS (commercial GSK3β peptide inhibitor, Calbiochem)
